Data from patent US20210309732A1 (ELIXIRON IMMUNOTHERAPEUTICS HONG KONG, published 2021).

B1: 1D2 SDR mutant HK32H (antibody, IgG1, V domains shown)
VH: QVQLVQSGAEVKKPGASVKVSCEASGYTFTDHYLHWVRQAPGQGLEWMAWINPKSGGTFYAQNFKGRVTVTRDTSINTAYLELTSLRLDDTSTYYCARGRDYYDQGAADLWGQGTMVTVSS
VL: DIQLTQSPSSLSASVGDRVTITCRASQGINSVLAWYQQKPGKAPKLLLYAASKLESGVPSRFSGSGSGTDYTLTISSLQPEDFGTYYCQQYYSPVRTFGQGTKVEIKR
notes: also called X2 H
B2: 1D2 SDR mutant HK32L (antibody, IgG1, V domains shown)
VH: QVQLVQSGAEVKKPGASVKVSCEASGYTFTDLYLHWVRQAPGQGLEWMAWINPKSGGTFYAQNFKGRVTVTRDTSINTAYLELTSLRLDDTSTYYCARGRDYYDQGAADLWGQGTMVTVSS
VL: DIQLTQSPSSLSASVGDRVTITCRASQGINSVLAWYQQKPGKAPKLLLYAASKLESGVPSRFSGSGSGTDYTLTISSLQPEDFGTYYCQQYYSPVRTFGQGTKVEIKR
notes: also called X2 L
B3: 1D2 SDR mutant HK54H (antibody, IgG1, V domains shown)
VH: QVQLVQSGAEVKKPGASVKVSCEASGYTFTDKYLHWVRQAPGQGLEWMAWINPHSGGTFYAQNFKGRVTVTRDTSINTAYLELTSLRLDDTSTYYCARGRDYYDQGAADLWGQGTMVTVSS
VL: DIQLTQSPSSLSASVGDRVTITCRASQGINSVLAWYQQKPGKAPKLLLYAASKLESGVPSRFSGSGSGTDYTLTISSLQPEDFGTYYCQQYYSPVRTFGQGTKVEIKR
notes: also called X3 H
B4: 1D2 SDR mutant HK54M (antibody, IgG1, V domains shown)
VH: QVQLVQSGAEVKKPGASVKVSCEASGYTFTDKYLHWVRQAPGQGLEWMAWINPMSGGTFYAQNFKGRVTVTRDTSINTAYLELTSLRLDDTSTYYCARGRDYYDQGAADLWGQGTMVTVSS
VL: DIQLTQSPSSLSASVGDRVTITCRASQGINSVLAWYQQKPGKAPKLLLYAASKLESGVPSRFSGSGSGTDYTLTISSLQPEDFGTYYCQQYYSPVRTFGQGTKVEIKR
notes: also called X3 M
B5: 1D2 SDR mutant HK54F (antibody, IgG1, V domains shown)
VH: QVQLVQSGAEVKKPGASVKVSCEASGYTFTDKYLHWVRQAPGQGLEWMAWINPFSGGTFYAQNFKGRVTVTRDTSINTAYLELTSLRLDDTSTYYCARGRDYYDQGAADLWGQGTMVTVSS
VL: DIQLTQSPSSLSASVGDRVTITCRASQGINSVLAWYQQKPGKAPKLLLYAASKLESGVPSRFSGSGSGTDYTLTISSLQPEDFGTYYCQQYYSPVRTFGQGTKVEIKR
notes: also called X3 F
B6: 1D2 SDR mutant HK54A (antibody, IgG1, V domains shown)
VH: QVQLVQSGAEVKKPGASVKVSCEASGYTFTDKYLHWVRQAPGQGLEWMAWINPASGGTFYAQNFKGRVTVTRDTSINTAYLELTSLRLDDTSTYYCARGRDYYDQGAADLWGQGTMVTVSS
VL: DIQLTQSPSSLSASVGDRVTITCRASQGINSVLAWYQQKPGKAPKLLLYAASKLESGVPSRFSGSGSGTDYTLTISSLQPEDFGTYYCQQYYSPVRTFGQGTKVEIKR
notes: also called X3 A
B7: 1D2 SDR mutant HK54I (antibody, IgG1, V domains shown)
VH: QVQLVQSGAEVKKPGASVKVSCEASGYTFTDKYLHWVRQAPGQGLEWMAWINPISGGTFYAQNFKGRVTVTRDTSINTAYLELTSLRLDDTSTYYCARGRDYYDQGAADLWGQGTMVTVSS
VL: DIQLTQSPSSLSASVGDRVTITCRASQGINSVLAWYQQKPGKAPKLLLYAASKLESGVPSRFSGSGSGTDYTLTISSLQPEDFGTYYCQQYYSPVRTFGQGTKVEIKR
notes: also called X3 I
B8: 1D2 SDR mutant HK32N (antibody, IgG1, V domains shown)
VH: QVQLVQSGAEVKKPGASVKVSCEASGYTFTDNYLHWVRQAPGQGLEWMAWINPKSGGTFYAQNFKGRVTVTRDTSINTAYLELTSLRLDDTSTYYCARGRDYYDQGAADLWGQGTMVTVSS
VL: DIQLTQSPSSLSASVGDRVTITCRASQGINSVLAWYQQKPGKAPKLLLYAASKLESGVPSRFSGSGSGTDYTLTISSLQPEDFGTYYCQQYYSPVRTFGQGTKVEIKR
notes: also called X2 N
B9: 1D2 SDR mutant HK32V (antibody, IgG1, V domains shown)
VH: QVQLVQSGAEVKKPGASVKVSCEASGYTFTDVYLHWVRQAPGQGLEWMAWINPKSGGTFYAQNFKGRVTVTRDTSINTAYLELTSLRLDDTSTYYCARGRDYYDQGAADLWGQGTMVTVSS
VL: DIQLTQSPSSLSASVGDRVTITCRASQGINSVLAWYQQKPGKAPKLLLYAASKLESGVPSRFSGSGSGTDYTLTISSLQPEDFGTYYCQQYYSPVRTFGQGTKVEIKR
notes: also called X2 V
B10: 1D2 SDR mutant HK54N (antibody, IgG1, V domains shown)
VH: QVQLVQSGAEVKKPGASVKVSCEASGYTFTDKYLHWVRQAPGQGLEWMAWINPNSGGTFYAQNFKGRVTVTRDTSINTAYLELTSLRLDDTSTYYCARGRDYYDQGAADLWGQGTMVTVSS
VL: DIQLTQSPSSLSASVGDRVTITCRASQGINSVLAWYQQKPGKAPKLLLYAASKLESGVPSRFSGSGSGTDYTLTISSLQPEDFGTYYCQQYYSPVRTFGQGTKVEIKR
notes: also called X3 N
B11: 1D2 SDR mutant HK54E (antibody, IgG1, V domains shown)
VH: QVQLVQSGAEVKKPGASVKVSCEASGYTFTDKYLHWVRQAPGQGLEWMAWINPESGGTFYAQNFKGRVTVTRDTSINTAYLELTSLRLDDTSTYYCARGRDYYDQGAADLWGQGTMVTVSS
VL: DIQLTQSPSSLSASVGDRVTITCRASQGINSVLAWYQQKPGKAPKLLLYAASKLESGVPSRFSGSGSGTDYTLTISSLQPEDFGTYYCQQYYSPVRTFGQGTKVEIKR
notes: also called X3 E
B12: 1D2 SDR mutant HK54P (antibody, IgG1, V domains shown)
VH: QVQLVQSGAEVKKPGASVKVSCEASGYTFTDKYLHWVRQAPGQGLEWMAWINPPSGGTFYAQNFKGRVTVTRDTSINTAYLELTSLRLDDTSTYYCARGRDYYDQGAADLWGQGTMVTVSS
VL: DIQLTQSPSSLSASVGDRVTITCRASQGINSVLAWYQQKPGKAPKLLLYAASKLESGVPSRFSGSGSGTDYTLTISSLQPEDFGTYYCQQYYSPVRTFGQGTKVEIKR
notes: also called X3 P
B13: 1D2 SDR mutant HK32S (antibody, IgG1, V domains shown)
VH: QVQLVQSGAEVKKPGASVKVSCEASGYTFTDSYLHWVRQAPGQGLEWMAWINPKSGGTFYAQNFKGRVTVTRDTSINTAYLELTSLRLDDTSTYYCARGRDYYDQGAADLWGQGTMVTVSS
VL: DIQLTQSPSSLSASVGDRVTITCRASQGINSVLAWYQQKPGKAPKLLLYAASKLESGVPSRFSGSGSGTDYTLTISSLQPEDFGTYYCQQYYSPVRTFGQGTKVEIKR
notes: also called X2 S
B14: 1D2 SDR mutant HK54C (antibody, IgG1, V domains shown)
VH: QVQLVQSGAEVKKPGASVKVSCEASGYTFTDKYLHWVRQAPGQGLEWMAWINPCSGGTFYAQNFKGRVTVTRDTSINTAYLELTSLRLDDTSTYYCARGRDYYDQGAADLWGQGTMVTVSS
VL: DIQLTQSPSSLSASVGDRVTITCRASQGINSVLAWYQQKPGKAPKLLLYAASKLESGVPSRFSGSGSGTDYTLTISSLQPEDFGTYYCQQYYSPVRTFGQGTKVEIKR
notes: also called X3 C
B15: 1D2 SDR mutant HK32R (antibody, V domains shown)
VH: QVQLVQSGAEVKKPGASVKVSCEASGYTFTDRYLHWVRQAPGQGLEWMAWINPKSGGTFYAQNFKGRVTVTRDTSINTAYLELTSLRLDDTSTYYCARGRDYYDQGAADLWGQGTMVTVSS
VL: DIQLTQSPSSLSASVGDRVTITCRASQGINSVLAWYQQKPGKAPKLLLYAASKLESGVPSRFSGSGSGTDYTLTISSLQPEDFGTYYCQQYYSPVRTFGQGTKVEIKR
notes: not the clone labelled 32R, which is light chain V32R; also called X2 R
B16: 1D2 SDR mutant HK32T (antibody, IgG1, V domains shown)
VH: QVQLVQSGAEVKKPGASVKVSCEASGYTFTDTYLHWVRQAPGQGLEWMAWINPKSGGTFYAQNFKGRVTVTRDTSINTAYLELTSLRLDDTSTYYCARGRDYYDQGAADLWGQGTMVTVSS
VL: DIQLTQSPSSLSASVGDRVTITCRASQGINSVLAWYQQKPGKAPKLLLYAASKLESGVPSRFSGSGSGTDYTLTISSLQPEDFGTYYCQQYYSPVRTFGQGTKVEIKR
notes: also called X2 T
B17: 1D2 SDR mutant HK32Q (antibody, IgG1, V domains shown)
VH: QVQLVQSGAEVKKPGASVKVSCEASGYTFTDQYLHWVRQAPGQGLEWMAWINPKSGGTFYAQNFKGRVTVTRDTSINTAYLELTSLRLDDTSTYYCARGRDYYDQGAADLWGQGTMVTVSS
VL: DIQLTQSPSSLSASVGDRVTITCRASQGINSVLAWYQQKPGKAPKLLLYAASKLESGVPSRFSGSGSGTDYTLTISSLQPEDFGTYYCQQYYSPVRTFGQGTKVEIKR
notes: also called X2 Q
B18: 1D2 SDR mutant HK32P (antibody, IgG1, V domains shown)
VH: QVQLVQSGAEVKKPGASVKVSCEASGYTFTDPYLHWVRQAPGQGLEWMAWINPKSGGTFYAQNFKGRVTVTRDTSINTAYLELTSLRLDDTSTYYCARGRDYYDQGAADLWGQGTMVTVSS
VL: DIQLTQSPSSLSASVGDRVTITCRASQGINSVLAWYQQKPGKAPKLLLYAASKLESGVPSRFSGSGSGTDYTLTISSLQPEDFGTYYCQQYYSPVRTFGQGTKVEIKR
notes: also called X2 P

These binders were tested against T1, recombinant human GM-CSF (human, UniProt P04141 18-144) (assay: ELISA on coated rhGM-CSF, UBA relative to 1D2).
T1 construct: also called rhGM-CSF; CSF2
Source text: Some of the residues in the CDRs are essential for epitope binding affinity and/or specificity. A number of computational methods were developed to detect these functional residues, generally known as ‘specificity-determining resides’ (SDRs). […] Based on the analysis, 7 amino acid residues in VH and 3 amino acid residues in VL were selected as the SDRs. The residues are labeled X₁ to X₁₀ for the ease of reference. The SDRs on VH are: Heavy chain D31 (HD31) (X₁), HK32 (X₂), HK54(X₃), HR100 (X₄), HY102 (X₅), HY103 (X₆) and HQ105 (X₇). The SDRs on VL are Light chain V32 (LV32) (X₈), LP94 (X₉) and LV95 (X₁₀). The SDRs were subsequently mutated by site-directed mutagenesis to other amino acids to generate mutant VH or VL clones. HEK293 cells were co-transfected with a vector encoding a mutant VH paired with a vector encoding a wild type VL or a vector encoding a wild type VH paired with a vector encoding a mutant VL. The antibody clones were harvested from the culture medium. The binding affinity of each antibody clone to human GM-CSF was tested by ELISA. The ELISA was done according to the following procedures. ELISA plate was coated with 50 μl of rhGM-CSF at 1 μg/mL. The plate was washed with 200 μl PBST for three times, followed by blocking with 1% BSA for 1 hour at room temperature. The antibody clones to be tested were diluted at 1:12000. 100 μl of the diluted antibodies were added to the cell at 100 μl/well. The plate was incubated at room temperature for 1 hour. The plate was then washed and incubated with 1:5000 diluted goat-anti-human secondary antibody conjugated with HRP at room temperature for one hour. The ELISA assay was developed with 100 μl developing buffer containing H₂O₂-Amplx Red per well in the dark for 5 min and the fluorescence intensity was read at Ex.530/Em.590 nm, with cutoff at 570 nm. The Unit Binding Activity (UBA) of each sample was calculated as the fluorescence signal/antibody clone dilution factor.

T1 sequence (P04141 18-144 limits assumed): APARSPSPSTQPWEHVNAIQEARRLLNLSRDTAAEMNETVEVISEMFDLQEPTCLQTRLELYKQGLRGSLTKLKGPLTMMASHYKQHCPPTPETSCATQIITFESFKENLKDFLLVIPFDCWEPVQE

| Binder | binding affinity % of 1D2 |
| --- | --- |
| B1 | 76% |
| B2 | 60% |
| B3 | 74% |
| B4 | 106% |
| B5 | 67% |
| B6 | 117% |
| B7 | 100% |
| B8 | 97% |
| B9 | 90% |
| B10 | 73% |
| B11 | 113% |
| B12 | 85% |
| B13 | 78% |
| B14 | 76% |
| B15 | 90% |
| B16 | 74% |
| B17 | 91% |
| B18 | 88% |
